Measured values published in PMC6570480, “PLK4 promotes centriole duplication by phosphorylating STIL to link the procentriole cartwheel to the microtubule wall” (eLife, 2019).
Each block holds one molecule with its values, some of them ahead of it.

What was measured:
[1] = target: DmSas4; assay: co-IP, immunoblot; conditions: reference: WT Ana2, no DmPLK4SBM-mCherry; sites S38
[2] = target: CPAP TCP domain, 1142-1338 (UniProt Q9HC77); assay: GST pull-down, immunoblot; conditions: sites S428
[3] = target: CPAP (UniProt Q9HC77); assay: immunofluorescence co-localisation at GFP-STIL/PLK4 foci; conditions: reference: WT Myc-GFP-STIL; sites S428
[4] = target: CPAP (UniProt Q9HC77); assay: GFP-binding-protein co-IP, immunoblot; conditions: sites S428
[5] = target: T1, Recombinant full-length GST-STIL (WT) phosphorylated in vitro by the His-PLK4 kinase domain (human, UniProt Q15468 1-1287, phosphoserine at 428 and phosphorylation at multiple other sites (84 in vitro phosphorylation sites identified on STIL), by the 6xHis-PLK4 kinase domain); assay: pull-down; GST-hSTIL bound to GSH resin, incubated with 6xHis-hPlk4 (a.a. 1–416) with or without 10 µM ATP at 33°C for two hours, then with Flag-CPAP TCP domain for 2 hr at 4°C in 50 mM Na-HEPES pH 7.5, 400 mM NaCl, 2 mM MgCl2, 1 mM EGTA, 1 mM DTT, 0.15% Triton-X 100, 0.5 mg/ml BSA; immunoblot; conditions: both partners purified
T1 construct: STIL, human, full length; also called GST-hSTIL; phosphorylated WT GST-STIL; source: SF9 insect cells (Bac-to-Bac), purified (Glutathione Sepharose); phosphorylated on beads by 6xHis-hPlk4 (a.a. 1–416) with ATP; not shown: GST, N-terminal, kept
T1 sequence (looked up): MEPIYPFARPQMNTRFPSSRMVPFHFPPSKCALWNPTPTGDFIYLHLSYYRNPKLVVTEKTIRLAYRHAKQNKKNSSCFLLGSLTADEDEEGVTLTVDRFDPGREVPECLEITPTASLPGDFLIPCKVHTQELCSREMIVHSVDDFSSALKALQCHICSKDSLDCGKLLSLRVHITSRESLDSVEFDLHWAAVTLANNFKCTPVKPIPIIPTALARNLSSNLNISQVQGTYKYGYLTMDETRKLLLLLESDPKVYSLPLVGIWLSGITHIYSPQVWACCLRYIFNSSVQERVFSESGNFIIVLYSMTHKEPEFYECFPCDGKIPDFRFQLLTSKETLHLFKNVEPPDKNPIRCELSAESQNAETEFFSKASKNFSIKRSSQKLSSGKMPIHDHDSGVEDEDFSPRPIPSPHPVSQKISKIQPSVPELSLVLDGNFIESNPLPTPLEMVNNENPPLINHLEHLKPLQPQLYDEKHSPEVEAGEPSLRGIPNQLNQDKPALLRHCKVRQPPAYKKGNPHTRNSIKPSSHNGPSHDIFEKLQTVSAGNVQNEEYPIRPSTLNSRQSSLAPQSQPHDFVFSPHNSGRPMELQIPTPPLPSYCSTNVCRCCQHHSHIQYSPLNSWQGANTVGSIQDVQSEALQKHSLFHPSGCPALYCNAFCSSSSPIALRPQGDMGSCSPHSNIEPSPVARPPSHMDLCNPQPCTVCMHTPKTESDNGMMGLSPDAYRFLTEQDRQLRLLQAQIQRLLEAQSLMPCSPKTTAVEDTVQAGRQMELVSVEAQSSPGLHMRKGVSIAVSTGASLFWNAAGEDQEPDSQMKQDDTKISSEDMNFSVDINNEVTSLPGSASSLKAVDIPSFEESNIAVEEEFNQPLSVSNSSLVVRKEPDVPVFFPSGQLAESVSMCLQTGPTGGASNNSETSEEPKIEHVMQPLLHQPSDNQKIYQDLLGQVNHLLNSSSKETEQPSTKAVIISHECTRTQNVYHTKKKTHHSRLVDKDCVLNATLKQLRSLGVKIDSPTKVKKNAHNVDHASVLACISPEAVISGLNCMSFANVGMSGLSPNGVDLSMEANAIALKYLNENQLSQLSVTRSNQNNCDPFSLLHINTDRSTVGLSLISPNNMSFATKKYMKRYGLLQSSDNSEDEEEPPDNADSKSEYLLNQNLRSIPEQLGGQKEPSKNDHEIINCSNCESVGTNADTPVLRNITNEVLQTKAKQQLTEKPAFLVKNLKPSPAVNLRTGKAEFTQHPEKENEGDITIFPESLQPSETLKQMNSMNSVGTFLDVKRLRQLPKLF

[6] = target: T2, Recombinant full-length GST-STIL S428A, not phosphorylated (human, UniProt Q15468 1-1287, S428A); assay: as above; conditions: both partners purified
T2 construct: STIL, human, full length; also called S428A GST-STIL; source: SF9 insect cells (Bac-to-Bac), purified (Glutathione Sepharose); incubated with 6xHis-hPlk4 (a.a. 1–416) without ATP; not shown: GST, N-terminal, kept
T2 sequence (looked up): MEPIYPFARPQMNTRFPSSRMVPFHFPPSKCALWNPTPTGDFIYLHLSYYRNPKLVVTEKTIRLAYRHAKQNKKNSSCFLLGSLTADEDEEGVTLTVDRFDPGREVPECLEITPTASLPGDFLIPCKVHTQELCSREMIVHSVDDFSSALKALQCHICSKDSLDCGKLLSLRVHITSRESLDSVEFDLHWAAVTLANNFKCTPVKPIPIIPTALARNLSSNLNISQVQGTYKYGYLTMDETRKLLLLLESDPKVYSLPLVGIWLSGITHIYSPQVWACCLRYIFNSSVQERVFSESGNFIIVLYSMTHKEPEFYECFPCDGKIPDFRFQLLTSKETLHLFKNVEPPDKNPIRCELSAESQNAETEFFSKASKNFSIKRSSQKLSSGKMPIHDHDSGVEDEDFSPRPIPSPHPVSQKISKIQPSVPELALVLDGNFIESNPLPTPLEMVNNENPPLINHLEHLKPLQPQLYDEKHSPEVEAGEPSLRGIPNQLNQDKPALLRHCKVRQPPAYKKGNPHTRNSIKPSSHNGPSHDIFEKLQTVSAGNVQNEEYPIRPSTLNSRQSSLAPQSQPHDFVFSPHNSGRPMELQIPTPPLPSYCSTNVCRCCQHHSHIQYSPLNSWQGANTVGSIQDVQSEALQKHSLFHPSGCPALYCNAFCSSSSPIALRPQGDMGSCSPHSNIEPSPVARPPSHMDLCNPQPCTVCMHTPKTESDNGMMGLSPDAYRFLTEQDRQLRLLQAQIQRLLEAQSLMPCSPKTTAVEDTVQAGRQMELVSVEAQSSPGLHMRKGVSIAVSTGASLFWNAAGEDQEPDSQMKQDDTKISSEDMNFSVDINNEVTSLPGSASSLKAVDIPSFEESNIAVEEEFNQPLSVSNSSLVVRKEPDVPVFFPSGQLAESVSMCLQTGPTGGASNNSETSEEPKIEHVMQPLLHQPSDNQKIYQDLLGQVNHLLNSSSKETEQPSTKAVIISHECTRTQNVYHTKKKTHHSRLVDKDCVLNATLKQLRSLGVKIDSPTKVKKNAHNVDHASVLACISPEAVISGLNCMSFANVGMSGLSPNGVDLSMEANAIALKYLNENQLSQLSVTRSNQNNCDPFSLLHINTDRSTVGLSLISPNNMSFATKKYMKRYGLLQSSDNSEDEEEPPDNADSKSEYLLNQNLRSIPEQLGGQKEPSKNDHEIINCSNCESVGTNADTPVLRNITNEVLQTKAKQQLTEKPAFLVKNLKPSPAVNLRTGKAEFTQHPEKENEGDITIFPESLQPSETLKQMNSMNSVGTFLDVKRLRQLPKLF

[7] = target: T3, Recombinant full-length GST-STIL S428A phosphorylated in vitro by the His-PLK4 kinase domain (human, UniProt Q15468 1-1287, S428A, phosphorylated at multiple sites by the 6xHis-PLK4 kinase domain (not at 428)); assay: as above; conditions: both partners purified
T3 construct: STIL, human, full length; also called S428A GST-STIL; source: SF9 insect cells (Bac-to-Bac), purified (Glutathione Sepharose); phosphorylated on beads by 6xHis-hPlk4 (a.a. 1–416) with ATP; not shown: GST, N-terminal, kept
T3 sequence (looked up): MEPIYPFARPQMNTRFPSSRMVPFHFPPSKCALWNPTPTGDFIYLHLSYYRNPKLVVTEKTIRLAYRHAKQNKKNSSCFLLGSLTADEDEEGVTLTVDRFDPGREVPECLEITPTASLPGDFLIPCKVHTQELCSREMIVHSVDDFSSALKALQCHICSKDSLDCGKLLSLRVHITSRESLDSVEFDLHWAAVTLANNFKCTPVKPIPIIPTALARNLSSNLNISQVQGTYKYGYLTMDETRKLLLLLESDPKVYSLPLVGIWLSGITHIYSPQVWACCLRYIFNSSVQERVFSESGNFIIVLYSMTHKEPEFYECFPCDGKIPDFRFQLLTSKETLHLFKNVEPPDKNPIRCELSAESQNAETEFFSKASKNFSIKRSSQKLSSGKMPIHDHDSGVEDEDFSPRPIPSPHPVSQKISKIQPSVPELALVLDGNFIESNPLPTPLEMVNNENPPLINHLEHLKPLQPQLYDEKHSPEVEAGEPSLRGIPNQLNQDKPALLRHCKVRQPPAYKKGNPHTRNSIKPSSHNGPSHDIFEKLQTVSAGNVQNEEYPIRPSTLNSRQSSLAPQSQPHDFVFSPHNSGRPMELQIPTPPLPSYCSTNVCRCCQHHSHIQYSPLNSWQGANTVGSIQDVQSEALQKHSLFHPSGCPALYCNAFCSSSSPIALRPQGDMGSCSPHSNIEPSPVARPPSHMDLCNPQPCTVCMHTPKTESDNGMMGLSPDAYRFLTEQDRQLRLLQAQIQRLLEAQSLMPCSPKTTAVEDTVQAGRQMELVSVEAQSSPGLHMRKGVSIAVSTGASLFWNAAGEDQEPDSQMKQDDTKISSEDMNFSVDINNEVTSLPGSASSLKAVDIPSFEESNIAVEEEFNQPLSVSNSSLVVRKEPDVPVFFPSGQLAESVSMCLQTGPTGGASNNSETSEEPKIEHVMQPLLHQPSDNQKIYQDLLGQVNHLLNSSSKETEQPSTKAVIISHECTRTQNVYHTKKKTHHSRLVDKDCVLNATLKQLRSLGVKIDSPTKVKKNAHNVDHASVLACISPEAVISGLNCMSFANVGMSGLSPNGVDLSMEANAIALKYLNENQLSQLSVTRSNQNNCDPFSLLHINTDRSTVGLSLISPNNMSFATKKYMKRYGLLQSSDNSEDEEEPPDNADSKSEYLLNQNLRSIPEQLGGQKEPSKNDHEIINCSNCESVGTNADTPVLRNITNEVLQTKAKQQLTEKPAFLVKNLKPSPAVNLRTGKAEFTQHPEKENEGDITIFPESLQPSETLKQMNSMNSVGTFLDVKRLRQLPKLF

fold change [1]: > 6
Molecule: Ana2 WT Ana2 + DmPLK4SBM-mCherry

binding against the reference ([2]; reference: WT GST-STIL, PLK4 + ATP): weaker
Molecule: STIL (from UniProt Q15468) GST-STIL S428A, PLK4 + ATP

binding against the reference ([4]; reference: WT STIL + kinase-active PLK4∆24-mCherry): weaker
Molecule: STIL (from UniProt Q15468) STIL S428A + kinase-active PLK4∆24-mCherry

fold increase in binding, phosphorylated against unphosphorylated GST-STIL [5]: ~2.5 fold
binding result [6]: binds
binding result [7]: binds
B1: Flag-CPAP TCP domain (aa 1142–1338) (domain or fragment, human, UniProt Q9HC77 1142-1338, looked up)
chain: EEEEDQDIQGEISHPDGKVEKVYKNGCRVILFPNGTRKEVSADGKTITVTFFNGDVKQVMPDQRVIYYYAAAQTTHTTYPEGLEVLHFSSGQIEKHYPDGRKEITFPDQTVKNLFPDGQEESIFPDGTIVRVQRDGNKLIEFNNGQRELHTAQFKRREYPDGTVKTVYANGHQETKYRSGRIRVKDKEGNVLMDTEL
notes: CPAP (CENPJ), human, TCP domain, residues 1142–1338; Expressed as GST-Flag-CPAP TCP; also called Flag-TCP domain; Flag-TCP; source: E. coli Rosetta (DE3), purified; not shown: FLAG, N-terminal, kept

The next lines start with the molecule.

Molecule: STIL (from UniProt Q15468) Myc-GFP-STIL S428A
other: percent reduction of CPAP at foci [3]: > 90%

Molecule: STIL (from UniProt Q15468) WT GST-STIL + His-PLK4 kinase domain + ATP
fold change ([2]; reference: WT GST-STIL + His-PLK4 kinase domain, no ATP): 2.5

Molecule: STIL (from UniProt Q15468) WT STIL + kinase-active PLK4∆24-mCherry
fold change ([4]; reference: WT STIL + kinase-dead PLK4∆24-mCherry): > 7
